biological target: T1, ClbR (Escherichia coli Nissle 1917) (UniProt Q0P7J1); assay: EMSA; conditions: pH and temperature not stated
T1 sequence: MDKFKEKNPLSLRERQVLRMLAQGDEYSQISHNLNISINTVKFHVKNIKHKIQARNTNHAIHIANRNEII

| Sequence | binding |
| --- | --- |
| CCAGTCACGACGTTGTAATACGACGGCCAGAGAATCCGTAATCATAGTCATAGCTGTATCCTGTGTGAAATTGTTATCCGCTCATAATTTCACACAACATACGAGCCGGACACATAGAGTGTAAAGACTGGGGTGCCTAATGAGTGAGCTGACTCACATTAATTGTGTTGCGCTCACTGCCCGCTTTCCAGTCGGGAAACTTGTCGTGCCAGCTGCATTAATGAATCGG (double strand) [lacZ promoter probe (229 bp)] | no binding |
| GAGATTTTCCATGTAATAAGATGGACACGCGTAAGCAGTTACCGCTAACACCAAGTCAACAGGGGTTTTTATTCCATTCCTTAAAGGATAAGAAAAGGAGTAACTACCATGAGCA (double strand) [probe 8 (clbB upstream, 115 bp)] | no binding |
| TGCGGATAGGTGTGCCATTTAGAATAATCATGTTAAATAATCTATAAATCCGATAATAAGGTGATGGTTATGGATAATACCTCTGGAGATTTTCCATGTAATAAGATGGACACGCGTAAGCAGTTACCGCTAACACCAAGTCAACAGGGGTTTTTATTCCATTCCTTAAAGGATAAGAAAAGGAGTAACTACCATGAGCA (double strand) [probe 11 (clbB upstream, 200 bp)] | no binding |
| TGCTCATGGTAGTTACTCCTTTTCTTATCCTTTAAGGAATGGAATAAAAACCCCTGTTGACTTGGTGTTAGCGGTAACTGCTTACGCGTGTCCATCTTATTACATGGAAAATCTCCAGAGGTATTATCCATAACCATCACCTTATTATCGGATTTATAGATTATTTAACAT (double strand) [probe 7 (clbB upstream, 171 bp)] | no binding |
| TGCTCATGGTAGTTACTCCTTTTCTTATCCTTTAAGGAATGGAATAAAAACCCCTGTTGACTTGGTGTTAGCGGTAACTGCTTACGCGTGTCCATCTTATTACATGGAAAATCTCCAGAGGTATTATCCATAACCATCACCTTATTATCGGATTTATAGATTATTTAACATGATTATTCTAAATGG (double strand) [probe 12 (clbB upstream, 186 bp)] | no binding |

From publication PMC7364221
